In paper PMC5774586 one finds FRET efficiency data, which are given here for 2 molecules.

Test [1] concerns the target FOXA1-Venus (UniProt P55317). Briefly: FRET or BRET.
In test [2] the target is T1, ESR1-Cerulean, P03372.
T1 chain: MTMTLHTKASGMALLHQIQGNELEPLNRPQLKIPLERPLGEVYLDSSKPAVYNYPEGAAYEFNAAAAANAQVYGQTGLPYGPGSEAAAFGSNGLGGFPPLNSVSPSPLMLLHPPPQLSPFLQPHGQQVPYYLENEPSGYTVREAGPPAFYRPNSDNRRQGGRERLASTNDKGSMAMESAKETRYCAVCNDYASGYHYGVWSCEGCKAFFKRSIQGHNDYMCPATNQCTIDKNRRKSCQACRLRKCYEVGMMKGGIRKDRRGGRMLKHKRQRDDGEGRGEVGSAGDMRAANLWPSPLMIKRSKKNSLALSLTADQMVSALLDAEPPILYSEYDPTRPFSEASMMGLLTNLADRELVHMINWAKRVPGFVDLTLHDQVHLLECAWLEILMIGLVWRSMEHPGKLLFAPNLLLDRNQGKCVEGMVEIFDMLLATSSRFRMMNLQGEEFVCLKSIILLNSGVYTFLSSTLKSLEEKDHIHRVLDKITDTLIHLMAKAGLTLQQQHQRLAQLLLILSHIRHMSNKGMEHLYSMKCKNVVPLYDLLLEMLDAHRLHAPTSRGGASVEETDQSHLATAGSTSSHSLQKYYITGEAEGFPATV
In words: FRET or BRET. The settings on record: remark: other sources report otherwise. In general terms: BRET reads energy transfer from a luciferase to a nearby fluorophore.

“NFIB-Cerulean (from UniProt O00712 1-420) (natural protein)”: the FRET efficiency in test [1] worked out at 0.055.

B1: FOXA1-Venus, P55317 1-472 (natural protein)
chain: MLGTVKMEGHETSDWNSYYADTQEAYSSVPVSNMNSGLGSMNSMNTYMTMNTMTTSGNMTPASFNMSYANPGLGAGLSPGAVAGMPGGSAGAMNSMTAAGVTAMGTALSPSGMGAMGAQQAASMNGLGPYAAAMNPCMSPMAYAPSNLGRSRAGGGGDAKTFKRSYPHAKPPYSYISLITMAIQQAPSKMLTLSEIYQWIMDLFPYYRQNQQRWQNSIRHSLSFNDCFVKVARSPDKPGKGSYWTLHPDSGNMFENGCYLRRQKRFKCEKQPGAGGGGGSGSGGSGAKGGPESRKDPSGASNPSADSPLHRGVHGKTGQLEGAPAPGPAASPQTLDHSGATATGGASELKTPASSTAPPISSGPGALASVPASHPAHGLAPHESQLHLKGDPHYSFNHPFSINNLMSSSEQQHKLDFKAYEQALQYSPYGSTLPASLPLGSASVTTRSPIEPSALEPAYYQGVYSRPVLNTS
In test [2], B1 displayed an FRET efficiency of 0.139.
